Test results published in the supplement of paper PMC12042874.
± gives the uncertainty stated by the source.

Test: amyloid nucleation score (Sup35N fusion, yeast selection) (log enrichment); library NNK3; higher = more nucleation; inactive = no reads after selection
How it was run: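 After 24 hours of induction with 100 μM copper sulfate, psi-negative yeast expressing peptides of 20 random codons fused to Sup35N were grown for 7 days at 30°C on medium lacking adenine and uracil. Input and output plasmid inserts were sequenced with Illumina, and sequences with under 100 input reads were discarded. Scores for nucleation are the DiMSum log enrichment of output over input reads, centred on the mode score of non-aggregating sequences.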

Amyloid nucleation score, 0.632 ± 0.14:
FVYTHIWGVGLGKML

Amyloid nucleation score, -0.401 ± 0.84:
CSNAGTCPCLCYRAILDQWV

Amyloid nucleation score, -0.68 ± 1.9:
PHNLNGPS

Amyloid nucleation score, 0.596 ± 0.14:
FSMCCTWYFKFHL

Amyloid nucleation score, -0.062 ± 0.49:
QEGGRWEPQKGRWESQAYLS

Amyloid nucleation score, 1.54 ± 0.096:
FAQLISYHSMLTCCKMTM

Amyloid nucleation score, 0.832 ± 0.24:
LVDLGFMRRCSQSRLQDFCF

Amyloid nucleation score, 1.59 ± 0.099:
THNVSKKWLVGVMCINSGRH

Amyloid nucleation score, 1.75 ± 0.089:
NFLWYCV

Amyloid nucleation score, 2.38 ± 0.059:
MMFVGYLSCFSS

Amyloid nucleation score, 0.154 ± 0.33:
IAEGFNTVGDLWNIGCCDSG

Amyloid nucleation score, 1.67 ± 0.073:
ALVAPKAGAFMSLKVQLGMP

Amyloid nucleation score, inactive:
YLASEVYRV
CNYNGLESILR
IVDCLFK
DSKQNYLIRVDRLFMECGLK
TVFSCYSWELEMMLWDGSYM
GNTVEGKLE
QMDRRTPLM
DMVSRSSCSDL
MSMLKFIYFDYSMDSLHIIW
MFCMYTRDREIYLVETLLYV
DISHKLNTTIVMYFREALRG
TTELVF
CVGMEVCGWEGS
MSKHRMFLSGRLFRANEVRP
CFFEVKRSHSIRVFRIGCGV
EMPLF
LVVRNVEVPIHR
QTVTRLTNSNSKLYFQPDVA
TKVFS
SLPCSKCAVKLFL
SSVVGMSGLG
VEQLTEDKRWRSACKQRRKV
GTFVFTYMWFNIYRQNDFRN
VDEAEKGVNHLERRGSYSRY
YGSIIV
VGQLFTSSSSVVSSGCMIVD
LQRVFLENRTSVYSVTG
GGKLSRNI
RQEFIGWFSTSALSAQFLS
YFFVSWFRCMGPILSFTRVV
RFILDVMRVAAGFMVSK
IGFCKDLVTCRTDYYAQLDR
VFQHGWGEVLRSRQGLLGSR
TVYSGWCTREVRICEPMNRG
LRLVTMSYWPRYLLRRKCIR
NKSYNDRARYVARGRDI
RSSESNIICTTLRYLSVVVY
SLSIASVWWDPGTHVFLALW
DSDVWANAGHRLSLKMI
DGMNSPRMEIRDRDRSAYIL
ILSILMCLQETNTDYNSMNR
MIIAFFCDYNGVEG
YEKPCEG
WRFGRVFDWGRLHLGVDRCR
ICYTLVTN
RKLKHLS
SSFDSAIEA
GNRLALVYLGRILPL
LMLRVHGMW
RVFEVEKLVEIGGTMLHESN
LLDSVDMLGFVMWVFGEVTN
LSINTQTS
TTEPDRATLSYR
AHDRIFWNGPYNRISYAAFR
ILCGESTR
EHVRVYFVLDYFDFCQAPAG
YRWYQINSGSYLYLASRWCW
FLWGICWYRMVMKAHFDFIC
FLVVVSF
FFHFSNVCTWVPDYSETSPS
HLFLKHMLLTYCKPCGW
RWFRLSWLEISKYA
SFLPNKYLL
GCINKDDYKSDCWSFYKTE
ILHFRETLTRINNLEA
RKMMCKWLCNIKGYIIVV
SRVLTYDT
TRWQRCSAIPPVGEA
VSMVQVTIRKRAS
RAWVLHCGNGYWYPLGQ
DVVLTNVFDCML
SCGSDKSLFDDCIKPRSRHC
RFGSVCPDL
YNNCYRCEN
SILWSPIDEGLIIVSSVTFL
TYKIIRYFLNLICSFRGPMP
MSQKEGFSDTGLLLRRSTRS
KVGFLFDGLFIFGGR
CVVNSGFNLSCMIVSQSVSL
PGCTTN
FIDMN
SIISMDKDRTLAHTDHQV
HFGQCSVMMCDAWGMSDQGP
SDRRLK
SCVARYDRAAHRRVIETRLG
SGCVKLVVNTCLRYY
CVSSLIAKMGIVGCDGCYKG
CNVNIHYFGTV
VYRLEVDISTILEGWSG
RYGLVVIAVVSAVHDGDACS
GADMKTRRSARGLMWTMGSS
NGTNPSYNKNCFSVFVESFN
TGKYRAVVLAC
TLDFGF
VGAFLKLNRNLMTFSMARNY
FRVYQNIDTERDSRTSPKES
TVRKSSIGGCVASYPFEHNK
AINDMRPVKSRGGVVELYML
DWSYEKWLACSGFYGRRRL
DGMFSFGSLCRYAELETSGK
DRNEVLDQNVVDSEISTVLP
STRILRLHITSMLDFRTTGA
RTSYLVLMKCYSALDYGVIA
GFLMGSE
YKFLLFFFYSISAFGNDSCD
KVARIVPRFKRQDYTALILD
SGFKG
FVIELCMWVRLEDVKLCFID
CVRYWKLGVVLRDG
YVYSVFFYRWW
GCNNVH
SMATNCTDR
VFPGTAVNHMESVHGWLVNY
IPHAARLCLMWIILWLI
RMNQIRLPGRCTY
CTRNEYIEW
ITQWWVYIKNF
NRRFITYFSFRSPEVYKMQY
VRQHCQMLMILFLYPLACGS
NDQAYMFYIGVYTTLCIGLK
ANLADKILFFGSPCRVMHPV
MINWHSRMSSEG
LIRTIEYLGRRISSQGCLHT
GQSVMQSAMGSISKFE
HDESQVVLCRYCCSDVRLTH
EVVVELIMLS
SHECHSFLHVLFNVACSWGG
QCPKCDLLMRDSDIRFTHAG

Amyloid nucleation score, 1.34 ± 0.076:
TTFFGCSFGLCRAIIGLDNV

Amyloid nucleation score, 1.36 ± 0.11:
KSTICACTLIMVNTPFMLSM

Amyloid nucleation score, 0.394 ± 0.33:
YICTNNLTYNSMMQIFSKIM

Amyloid nucleation score, -0.278 ± 0.47:
CTYDSLRILAYRANQTNWFQ

Amyloid nucleation score, 1.99 ± 0.063:
SCLSNIVFFFPCQCRSMIFS

Amyloid nucleation score, -0.3 ± 1.1:
LMYAVLGTQTVSLSAFKSR

Amyloid nucleation score, 0.63 ± 0.34:
GGPSYSLSLWLSKVSCLQGG

Amyloid nucleation score, -0.922 ± 1.9:
SNRKPWARHIVDRACM

Amyloid nucleation score, -0.113 ± 0.31:
GIGIFSCLKSSVLCLIYLSR

Amyloid nucleation score, 2.56 ± 0.076:
FIWQMGNNPVVVAFSCRAGW

Amyloid nucleation score, 0.401 ± 0.21:
ADNIGRFVYCYCSVLQTTIS

Amyloid nucleation score, 0.482 ± 0.15:
WGILW

Amyloid nucleation score, 0.749 ± 0.11:
FGFYKWPTTCLGSVSSLSSM

Amyloid nucleation score, -0.083 ± 0.34:
FTFLMDRY

Amyloid nucleation score, 1.74 ± 0.054:
CAVFRVSRISINTDAIFITC

Amyloid nucleation score, 0.116 ± 0.28:
LGRPYQHVWYIHSEVKGVEY

Amyloid nucleation score, 1.14 ± 0.096:
SCGKGRYWVLNAMINPICKQ

Amyloid nucleation score, -0.567 ± 0.76:
FVMRYRVVYSDRCFELGWHA

Amyloid nucleation score, 1.45 ± 0.11:
TFRICADMCCTGVR

Amyloid nucleation score, 0.883 ± 0.16:
PVSNRLSCDSAFTFPYNMIF

Amyloid nucleation score, 1.09 ± 0.15:
LNVCVMEKNSNLRWSYWDLC
